Data taken from publication PMC4521836.
Like-named read-outs stand apart in the source and are kept apart here.

Molecular target: T1, IscR (Pseudomonas aeruginosa PAO1) (UniProt Q9HXI7)
T1 sequence: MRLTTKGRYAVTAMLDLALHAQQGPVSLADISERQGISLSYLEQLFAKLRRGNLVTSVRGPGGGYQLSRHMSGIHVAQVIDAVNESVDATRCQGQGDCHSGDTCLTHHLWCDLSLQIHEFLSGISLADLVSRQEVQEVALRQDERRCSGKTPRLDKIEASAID
Experiment: EMSA

GTCAACCGCAAGCGCTGATCGGCCGCTGGCTATCCCCGTCAGCGGGGATATTTACAAGCCTTGCGGGTGTTTCTGCCGGGTGCTTTGCGGGACACTAGGGGAGTATCGGTATCCGGAGCGGACCATGACCGCCAGCGAAGAGAAATTCACCCGCCAGACGCTGCTCGACGTGCAGCCTCTGACT (double strand) [fprB promoter fragment, IscR site GCC to TTT]
binding: no binding

GTCAACCGCAAGCGCTGATCGGCCGCTGGCTATCCCCGTCAGCGGGGATAGCCACAAGCCTTGCGGGTGTTTCTGCCGGGTGCTTTGCGGGACACTAGGGGAGTATCGGTATCCGGAGCGGACCATGACCGCCAGCGAAGAGAAATTCACCCGCCAGACGCTGCTCGACGTGCAGCCTCTGACT (double strand) [fprB promoter fragment (native), 184 bp]
binding (20 mM Tris-HCl pH 8.0, 50 mM KCl, 4 mM MgCl2, 0.5 mM EDTA, 0.02 mg/ml BSA, 5 mM DTT, 10% glycerol, 200 ng poly(dI-dC), 3 fmol probe in 25 ul, 25 C 20 min, 7% …): binds
